Reference: patent US20240327535A1 (EISAI R AND D MANAGEMENT, published 2024)

T1: extracellular domain of human BCMA (human, UniProt Q02223 1-54)
T1 construct: amine-linked to Octet AR2G tips; also called hsBCMA; BCMA (human)
T1 sequence: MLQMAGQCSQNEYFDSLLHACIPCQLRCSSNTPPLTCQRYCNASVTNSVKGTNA


Tests used:
[1] = target: T2, extracellular domain of rhesus monkey BCMA (rhesus monkey, UniProt F7FFA0 1-53); experiment: Octet BLI; Fab 200 nM
T2 construct: extracellular domain; also called RhBCMA

[2] = target: T1, extracellular domain of human BCMA; experiment: Octet BLI; Fab 200 nM

T2 sequence (F7FFA0 entry or part of it): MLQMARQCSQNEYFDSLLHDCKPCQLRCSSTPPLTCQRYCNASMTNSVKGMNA

Row | Binder | Kd [1] | Kd [2]
1 | AB200-R1H32-R2Vk46 (Fab, V domains shown) VH: QVQLVQSGAEVKKPGSSVKVSCKASGGTFSNYWMHWVRQAPGQGLEWMGATYRSHSDTYYNQKFKSRVTITADKSTSTAYMELSSLRSEDTAVYYCARGAIYHGYDVIDNWGQGTLVTVSS VL: DIQMTQSPSSLSASVGDRVTITCRASQSISSYINWYQQKPGKAPKLLIYATSNLQIGVPSRFSGSGSGTDFTLTISSLQPEDFATYYCQQFRRLPWTFGQGTKLEIKR | 2.98 nM | 0.778 nM
2 | AB200-R1H32-R2Vk47 (Fab, V domains shown) VH: QVQLVQSGAEVKKPGSSVKVSCKASGGTFSNYWMHWVRQAPGQGLEWMGATYRSHSDTYYNQKFKSRVTITADKSTSTAYMELSSLRSEDTAVYYCARGAIYHGYDVIDNWGQGTLVTVSS VL: DIQMTQSPSSLSASVGDRVTITCRASQSISSYINWYQQKPGKAPKLLIYATSNLQIGVPSRFSGSGSGTDFTLTISSLQPEDFATYYCQQYRKIPWSFGQGTKLEIKR | 3.91 nM | 0.766 nM
3 | AB200-R1H32-R2Vk20 (Fab, V domains shown) VH: QVQLVQSGAEVKKPGSSVKVSCKASGGTFSNYWMHWVRQAPGQGLEWMGATYRSHSDTYYNQKFKSRVTITADKSTSTAYMELSSLRSEDTAVYYCARGAIYHGYDVIDNWGQGTLVTVSS VL: DIQMTQSPSSLSASVGDRVTITCRASQSISSYLNWYQQKPGKAPKLLIYATSNLQSGVPSRFSGSGSGTDFTLTISSLQPEDFATYYCQQYRRIPWTFGQGTKLEIKR | 4.82 nM | 0.867 nM
4 | AB200-R1H32-R2Vk2 (Fab, V domains shown) VH: QVQLVQSGAEVKKPGSSVKVSCKASGGTFSNYWMHWVRQAPGQGLEWMGATYRSHSDTYYNQKFKSRVTITADKSTSTAYMELSSLRSEDTAVYYCARGAIYHGYDVIDNWGQGTLVTVSS VL: DIQMTQSPSSLSASVGDRVTITCRASQSISSYINWYQQKPGKAPKLLIYAASSLQSGVPSRFSGSGSGTDFTLTISSLQPEDFATYYCQQFRKLPWSFGQGTKLEIKR | 5.5 nM | 1.48 nM
5 | AB200-R1H32-R2Vk4 (Fab, V domains shown) VH: QVQLVQSGAEVKKPGSSVKVSCKASGGTFSNYWMHWVRQAPGQGLEWMGATYRSHSDTYYNQKFKSRVTITADKSTSTAYMELSSLRSEDTAVYYCARGAIYHGYDVIDNWGQGTLVTVSS VL: DIQMTQSPSSLSASVGDRVTITCRASQSISSYLNWYQQKPGKAPKLLIYATSNIQSGVPSRFSGSGSGTDFTLTISSLQPEDFATYYCQQFRKLPWSFGQGTKLEIKR | 5.6 nM | 1.14 nM
6 | AB200-R1H32-R2Vk5 (Fab, V domains shown) VH: QVQLVQSGAEVKKPGSSVKVSCKASGGTFSNYWMHWVRQAPGQGLEWMGATYRSHSDTYYNQKFKSRVTITADKSTSTAYMELSSLRSEDTAVYYCARGAIYHGYDVIDNWGQGTLVTVSS VL: DIQMTQSPSSLSASVGDRVTITCRASQSISSYLNWYQQKPGKAPKLLIYATSNLQIGVPSRFSGSGSGTDFTLTISSLQPEDFATYYCQQFRKLPWSFGQGTKLEIKR | 5.66 nM | 0.882 nM
7 | AB200-R1H32-R2Vk6 (Fab, V domains shown) VH: QVQLVQSGAEVKKPGSSVKVSCKASGGTFSNYWMHWVRQAPGQGLEWMGATYRSHSDTYYNQKFKSRVTITADKSTSTAYMELSSLRSEDTAVYYCARGAIYHGYDVIDNWGQGTLVTVSS VL: DIQMTQSPSSLSASVGDRVTITCRASQSISSYINWYQQKPGKAPKLLIYATSNLQSGVPSRFSGSGSGTDFTLTISSLQPEDFATYYCQQFRKLPWSFGQGTKLEIKR | 4.63 nM | 1.23 nM
8 | AB200-R1H32-R2Vk7 (Fab, V domains shown) VH: QVQLVQSGAEVKKPGSSVKVSCKASGGTFSNYWMHWVRQAPGQGLEWMGATYRSHSDTYYNQKFKSRVTITADKSTSTAYMELSSLRSEDTAVYYCARGAIYHGYDVIDNWGQGTLVTVSS VL: DIQMTQSPSSLSASVGDRVTITCRASQSISSYINWYQQKPGKAPKLLIYATSNIQSGVPSRFSGSGSGTDFTLTISSLQPEDFATYYCQQFRKLPWSFGQGTKLEIKR | 5 nM | 1.27 nM
9 | AB200-R1H32-R2Vk8 (Fab, V domains shown) VH: QVQLVQSGAEVKKPGSSVKVSCKASGGTFSNYWMHWVRQAPGQGLEWMGATYRSHSDTYYNQKFKSRVTITADKSTSTAYMELSSLRSEDTAVYYCARGAIYHGYDVIDNWGQGTLVTVSS VL: DIQMTQSPSSLSASVGDRVTITCRASQSISSYINWYQQKPGKAPKLLIYATSNLQIGVPSRFSGSGSGTDFTLTISSLQPEDFATYYCQQFRKLPWSFGQGTKLEIKR | 3.59 nM | 0.92 nM
10 | AB200-R1H32-R2Vk9 (Fab, V domains shown) VH: QVQLVQSGAEVKKPGSSVKVSCKASGGTFSNYWMHWVRQAPGQGLEWMGATYRSHSDTYYNQKFKSRVTITADKSTSTAYMELSSLRSEDTAVYYCARGAIYHGYDVIDNWGQGTLVTVSS VL: DIQMTQSPSSLSASVGDRVTITCRASQSISSYLNWYQQKPGKAPKLLIYAASSLQSGVPSRFSGSGSGTDFTLTISSLQPEDFATYYCQQYRRLPWSFGQGTKLEIKR | 7.38 nM | 1.43 nM
11 | AB200-R1H32-R2Vk10 (Fab, V domains shown) VH: QVQLVQSGAEVKKPGSSVKVSCKASGGTFSNYWMHWVRQAPGQGLEWMGATYRSHSDTYYNQKFKSRVTITADKSTSTAYMELSSLRSEDTAVYYCARGAIYHGYDVIDNWGQGTLVTVSS VL: DIQMTQSPSSLSASVGDRVTITCRASQSISSYLNWYQQKPGKAPKLLIYAASSLQSGVPSRFSGSGSGTDFTLTISSLQPEDFATYYCQQYRRIPWTFGQGTKLEIKR | 7.86 nM | 2.1 nM
12 | AB200-R1H32-R2Vk14 (Fab, V domains shown) VH: QVQLVQSGAEVKKPGSSVKVSCKASGGTFSNYWMHWVRQAPGQGLEWMGATYRSHSDTYYNQKFKSRVTITADKSTSTAYMELSSLRSEDTAVYYCARGAIYHGYDVIDNWGQGTLVTVSS VL: DIQMTQSPSSLSASVGDRVTITCRASQSISSYINWYQQKPGKAPKLLIYAASSLQSGVPSRFSGSGSGTDFTLTISSLQPEDFATYYCQQYRRLPWSFGQGTKLEIKR | 6.05 nM | 1.32 nM
13 | AB200-R1H32-R2Vk15 (Fab, V domains shown) VH: QVQLVQSGAEVKKPGSSVKVSCKASGGTFSNYWMHWVRQAPGQGLEWMGATYRSHSDTYYNQKFKSRVTITADKSTSTAYMELSSLRSEDTAVYYCARGAIYHGYDVIDNWGQGTLVTVSS VL: DIQMTQSPSSLSASVGDRVTITCRASQSISSYINWYQQKPGKAPKLLIYAASSLQSGVPSRFSGSGSGTDFTLTISSLQPEDFATYYCQQYRRIPWTFGQGTKLEIKR | 6.41 nM | 1.29 nM
14 | AB200-R1H32-R2Vk16 (Fab, V domains shown) VH: QVQLVQSGAEVKKPGSSVKVSCKASGGTFSNYWMHWVRQAPGQGLEWMGATYRSHSDTYYNQKFKSRVTITADKSTSTAYMELSSLRSEDTAVYYCARGAIYHGYDVIDNWGQGTLVTVSS VL: DIQMTQSPSSLSASVGDRVTITCRASQSISSYINWYQQKPGKAPKLLIYAASSLQSGVPSRFSGSGSGTDFTLTISSLQPEDFATYYCQQFRRLPWTFGQGTKLEIKR | 4.54 nM | 1.17 nM
15 | AB200-R1H32-R2Vk17 (Fab, V domains shown) VH: QVQLVQSGAEVKKPGSSVKVSCKASGGTFSNYWMHWVRQAPGQGLEWMGATYRSHSDTYYNQKFKSRVTITADKSTSTAYMELSSLRSEDTAVYYCARGAIYHGYDVIDNWGQGTLVTVSS VL: DIQMTQSPSSLSASVGDRVTITCRASQSISSYINWYQQKPGKAPKLLIYAASSLQSGVPSRFSGSGSGTDFTLTISSLQPEDFATYYCQQYRKIPWSFGQGTKLEIKR | 7.49 nM | 1.43 nM
16 | AB200-R1H32-R2Vk18 (Fab, V domains shown) VH: QVQLVQSGAEVKKPGSSVKVSCKASGGTFSNYWMHWVRQAPGQGLEWMGATYRSHSDTYYNQKFKSRVTITADKSTSTAYMELSSLRSEDTAVYYCARGAIYHGYDVIDNWGQGTLVTVSS VL: DIQMTQSPSSLSASVGDRVTITCRASQSISSYINWYQQKPGKAPKLLIYAASSLQSGVPSRFSGSGSGTDFTLTISSLQPEDFATYYCQQFRKIPWTFGQGTKLEIKR | 6.3 nM | 1.52 nM
17 | AB200-R1H32-R2Vk19 (Fab, V domains shown) VH: QVQLVQSGAEVKKPGSSVKVSCKASGGTFSNYWMHWVRQAPGQGLEWMGATYRSHSDTYYNQKFKSRVTITADKSTSTAYMELSSLRSEDTAVYYCARGAIYHGYDVIDNWGQGTLVTVSS VL: DIQMTQSPSSLSASVGDRVTITCRASQSISSYLNWYQQKPGKAPKLLIYATSNLQSGVPSRFSGSGSGTDFTLTISSLQPEDFATYYCQQYRRLPWSFGQGTKLEIKR | 4.57 nM | 0.946 nM
18 | AB200-R1H32-R2Vk22 (Fab, V domains shown) VH: QVQLVQSGAEVKKPGSSVKVSCKASGGTFSNYWMHWVRQAPGQGLEWMGATYRSHSDTYYNQKFKSRVTITADKSTSTAYMELSSLRSEDTAVYYCARGAIYHGYDVIDNWGQGTLVTVSS VL: DIQMTQSPSSLSASVGDRVTITCRASQSISSYLNWYQQKPGKAPKLLIYATSNLQSGVPSRFSGSGSGTDFTLTISSLQPEDFATYYCQQYRKIPWSFGQGTKLEIKR | 5.64 nM | 1.06 nM
19 | AB200-R1H32-R2Vk23 (Fab, V domains shown) VH: QVQLVQSGAEVKKPGSSVKVSCKASGGTFSNYWMHWVRQAPGQGLEWMGATYRSHSDTYYNQKFKSRVTITADKSTSTAYMELSSLRSEDTAVYYCARGAIYHGYDVIDNWGQGTLVTVSS VL: DIQMTQSPSSLSASVGDRVTITCRASQSISSYLNWYQQKPGKAPKLLIYATSNLQSGVPSRFSGSGSGTDFTLTISSLQPEDFATYYCQQFRKIPWTFGQGTKLEIKR | 5.08 nM | 1.13 nM
20 | AB200-R1H32-R2Vk25 (Fab, V domains shown) VH: QVQLVQSGAEVKKPGSSVKVSCKASGGTFSNYWMHWVRQAPGQGLEWMGATYRSHSDTYYNQKFKSRVTITADKSTSTAYMELSSLRSEDTAVYYCARGAIYHGYDVIDNWGQGTLVTVSS VL: DIQMTQSPSSLSASVGDRVTITCRASQSISSYLNWYQQKPGKAPKLLIYATSNIQSGVPSRFSGSGSGTDFTLTISSLQPEDFATYYCQQYRRIPWTFGQGTKLEIKR | 5.62 nM | 1.04 nM
